# Measured values: the supplement of paper PMC7125110
# ± gives the standard error. For some of these results: Variants at the floor of the assay were thinned out.
# B1: glmS ribozyme (parent)
# chain: AUAAAAGCGCCAGAACUACAGAAAUGUAGUUGACGAGGAGGAGGUUUAUCGAAUUUUCGGCGGAUGCCUCCAAA
# Columns and labels:
# Conditions in all cases: with glucosamine-6-phosphate
# glucosamine-6-phosphate [1] = variants of: B1; assay: self-cleavage kobs at 40 uM GlcN6P; higher = faster cleavage; RNA array
# How it was run: (§1)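 Glucosamine-6-phosphate in HEPES/KCl/Mg(OAc)2 buffer, at 40 μM to 10 mM, was flowed over barcoded ribozyme variants transcribed in situ by E. coli RNA polymerase on sequenced MiSeq chips. Tracking was through a hybridised Cy3 probe at 37 °C. kobs, kcat and KM came from exponential decay fits and weighted Michaelis–Menten fits of normalised per-tile medians.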
# glucosamine-6-phosphate [2] = variants of: B1; assay: KM; higher = weaker cofactor use; RNA array
# How it was run: as §1
# glucosamine-6-phosphate [3] = variants of: B1; assay: self-cleavage kobs at 160 uM GlcN6P; higher = faster cleavage; RNA array
# How it was run: as §1
# glucosamine-6-phosphate [4] = variants of: B1; assay: self-cleavage kobs at 2500 uM GlcN6P; higher = faster cleavage; RNA array
# How it was run: as §1
# glucosamine-6-phosphate [5] = variants of: B1; assay: self-cleavage kobs at 10000 uM GlcN6P; higher = faster cleavage; RNA array
# How it was run: as §1
# glucosamine-6-phosphate [6] = variants of: B1; assay: self-cleavage kobs at 640 uM GlcN6P; higher = faster cleavage; RNA array
# How it was run: as §1
# glucosamine-6-phosphate [7] = variants of: B1; assay: kcat; higher = faster cleavage; RNA array
# How it was run: as §1
Variant,self-cleavage kobs at 40 uM GlcN6P (glucosamine-6-phosphate [1]),KM (glucosamine-6-phosphate [2]),self-cleavage kobs at 160 uM GlcN6P (glucosamine-6-phosphate [3]),self-cleavage kobs at 2500 uM GlcN6P (glucosamine-6-phosphate [4]),self-cleavage kobs at 10000 uM GlcN6P (glucosamine-6-phosphate [5]),self-cleavage kobs at 640 uM GlcN6P (glucosamine-6-phosphate [6]),kcat (glucosamine-6-phosphate [7])
C8G G29U G66U,< 1e-05 s⁻¹,,,,,,
G40U C58G,,4730 ± 1300 µM,,,,,
G9U U31A C34U,< 1e-05 s⁻¹,,< 1e-05 s⁻¹,,,,
A33G A36U,< 1e-05 s⁻¹,,< 1e-05 s⁻¹,< 1e-05 s⁻¹,< 1e-05 s⁻¹,,
C11A G37U A42U C68U,< 1e-05 s⁻¹,,,,,< 1e-05 s⁻¹,
A33U G38C G40C U65A C70G,< 1e-05 s⁻¹,,,< 1e-05 s⁻¹,< 1e-05 s⁻¹,,
C10A C34U C67G C68G,,,4.7e-05 ± 8.5e-06 s⁻¹,4.25e-05 ± 9.3e-06 s⁻¹,,,4.25e-05 ± 6.7e-06 s⁻¹
A15C U45G,,1570 ± 400 µM,7.06e-05 ± 1.5e-05 s⁻¹,0.000568 ± 8.2e-05 s⁻¹,0.000562 ± 0.00014 s⁻¹,0.000218 ± 2.9e-05 s⁻¹,0.000779 ± 0.00013 s⁻¹
G38U C71A,,35.8 ± 15 µM,,,,,
A14C A36G A48U G59A,< 1e-05 s⁻¹,,,< 1e-05 s⁻¹,< 1e-05 s⁻¹,< 1e-05 s⁻¹,
G62U A64U,< 1e-05 s⁻¹,,,,< 1e-05 s⁻¹,< 1e-05 s⁻¹,
A42U G59A,,145 ± 23 µM,,,,,
A14G A15U U31C,0.000793 ± 0.00021 s⁻¹,,,,0.0212 ± 0.0057 s⁻¹,,
A33G G38U,,47.2 ± 22 µM,,,,,
A12U A33G G63A,< 1e-05 s⁻¹,,,,,,
U30G U55G C71U,0.00027 ± 5e-05 s⁻¹,,,0.00316 ± 0.0014 s⁻¹,0.00591 ± 0.001 s⁻¹,0.00135 ± 0.00022 s⁻¹,
C11U A12U A64U,< 1e-05 s⁻¹,,,,,,
C16G A52U,,7790 ± 2700 µM,,,8.41e-05 ± 1.5e-05 s⁻¹,,0.00015 ± 2.4e-05 s⁻¹
A12G C68G C71U,< 1e-05 s⁻¹,,,,< 1e-05 s⁻¹,< 1e-05 s⁻¹,
C10G A14U C34A U49G,< 1e-05 s⁻¹,,,,,,
C34A C70G,< 1e-05 s⁻¹,,,< 1e-05 s⁻¹,,,
C11U G41U,,740 ± 130 µM,,8.28e-05 ± 1.7e-05 s⁻¹,9.12e-05 ± 1e-05 s⁻¹,4.38e-05 ± 1.5e-05 s⁻¹,9.92e-05 ± 3.5e-06 s⁻¹
U56C G62A,,135 ± 63 µM,,,,,
G13C A52C,< 1e-05 s⁻¹,,,< 1e-05 s⁻¹,,< 1e-05 s⁻¹,
A14U C34G,< 1e-05 s⁻¹,,< 1e-05 s⁻¹,,< 1e-05 s⁻¹,< 1e-05 s⁻¹,
G40A G51A,< 1e-05 s⁻¹,,< 1e-05 s⁻¹,< 1e-05 s⁻¹,< 1e-05 s⁻¹,< 1e-05 s⁻¹,
